The nature of the data set: protein stability index of a GFP-peptide fusion (GPS, HEK-293T) (PSI 1-6); higher = more stable. The following applies: c terminus: a fixed tail appended.

± gives the standard deviation.
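Further: 24-mer peptide tiles fused after GFP, lentivirally expressed, FACS-sorted into six equal bins by GFP/DsRed ratio, decoded by Illumina sequencing, PSI is the read-weighted mean bin number.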

In the case of VIVMTTRFEEGGRRKCGQYWPLEK [PTPN9], the protein stability index came to 2.12 ± 0.75 (treatment: DMSO) and 2.47 ± 0.57 (treatment: MLN4924 1 uM, 8 h).

Consider VKESGERKVTDSISKSLELCNEIS [DLC1], for which the protein stability index by setting is: (treatment: DMSO) 4.52 ± 0.11; (treatment: MLN4924 1 uM, 8 h) 4.82 ± 0.21.

Regarding VKIESVKLDFKEKAQAKVGSLDNA [MAP2], the protein stability index came out at 3.5 ± 0.24 (treatment: DMSO) and 3.52 ± 0.24 (treatment: MLN4924 1 uM, 8 h).

On to VKKYKSMKLEKEEFVTLKAIALAN [ESRRG], for which the protein stability index by setting is: (treatment: DMSO) 2.46 ± 0.32; (treatment: MLN4924 1 uM, 8 h) 2.66 ± 0.2.

With VKMDSSIQPGPFRAVLKYLYTGEL [RHOBTB2], the protein stability index reads like this: (treatment: DMSO) 2.32 ± 0.96; (treatment: MLN4924 1 uM, 8 h) 2.02 ± 0.45.

Turning to VKQKISPYFKSNDVVCKNQDELRN [FAN1], the protein stability index reads like this: (treatment: DMSO) 3.84 ± 0.24; (treatment: MLN4924 1 uM, 8 h) 3.64 ± 0.44.

VLADLHSAEQLKAQAIDFINRCSV [SPOPL]: the protein stability index is, setting by setting: (treatment: DMSO) 2.15 ± 0.14; (treatment: MLN4924 1 uM, 8 h) 2.29 ± 0.39.

VLAIIAREGDCAPEEKIWEELSVL [MAGEA3]: the protein stability index came to 2.62 ± 0.48 (treatment: DMSO) and 2.42 ± 0.4 (treatment: MLN4924 1 uM, 8 h).

Consider VLCEAAFPKKLAFAYLEDLHSEFD [SEC22B], for which the protein stability index worked out at 2.14 ± 0.28 (treatment: DMSO) and 2.31 ± 0.12 (treatment: MLN4924 1 uM, 8 h).

Sequence VLFNEKIREQIKKYRRHFLRFCHN [EIF5] returned a protein stability index (treatment: DMSO) of 2.82 ± 0.29 and a protein stability index (treatment: MLN4924 1 uM, 8 h) of 3 ± 0.65.

Regarding VLNTQGQKTSGQHMIQGAGSLEKA [DLC1], the protein stability index reads like this: (treatment: DMSO) 4.19 ± 0.42; (treatment: MLN4924 1 uM, 8 h) 4.23 ± 0.33.

For VLREDQIPRGFPTIDMGPQLKVVE [PTPRD], the protein stability index was found to be 3.898 ± 0.018 (treatment: DMSO) and 3.34 ± 1.1 (treatment: MLN4924 1 uM, 8 h).

In turn, VLRLCCKKLKIFAMPMQDIKMILK [PRAME] came in with a protein stability index (treatment: DMSO) of 2.81 ± 0.38 and a protein stability index (treatment: MLN4924 1 uM, 8 h) of 2.73 ± 0.52.

Regarding VMRTKSSEKAANDDHSVRVAREDV [CPXM2], the protein stability index was 5.08 ± 0.54 (treatment: DMSO) and 5.16 ± 0.35 (treatment: MLN4924 1 uM, 8 h).

With VNNYTNSFGGEWSAPDTMKRYSMY [TRIM29], the protein stability index by setting is: (treatment: DMSO) 2.32 ± 0.19; (treatment: MLN4924 1 uM, 8 h) 2.62 ± 0.3.

As to VNSQFTAAVFKETFKSLSHIDPDV [ALG2], the protein stability index by setting is: (treatment: DMSO) 2.86 ± 0.47; (treatment: MLN4924 1 uM, 8 h) 3.05 ± 0.33.

In the case of VPDVKEMEKSSFTEYIESPDVENE [TAF7L], the protein stability index runs as follows: (treatment: DMSO) 5.59 ± 0.17; (treatment: MLN4924 1 uM, 8 h) 5.61 ± 0.23.

With VPLQLSAHWQCGATLTQVSVEYGY [FCHO1], the protein stability index is, setting by setting: (treatment: DMSO) 2.76 ± 0.76; (treatment: MLN4924 1 uM, 8 h) 2.6 ± 0.67.

As for VPQAPRRLRASFSRKPSLKGNRED [PLEKHN1], the protein stability index is, setting by setting: (treatment: DMSO) 4.71 ± 0.097; (treatment: MLN4924 1 uM, 8 h) 4.83 ± 0.13.

With VQAIFSGDPEEIRMLIHKTEDVNT [ANKRD44], the protein stability index runs as follows: (treatment: DMSO) 3.76 ± 0.11; (treatment: MLN4924 1 uM, 8 h) 3.58 ± 0.11.

As for VRILLEHYYKENDPSVRLKIASLL [INTS4], the protein stability index runs as follows: (treatment: DMSO) 2.09 ± 0.33; (treatment: MLN4924 1 uM, 8 h) 2.41 ± 0.4.

Sequence VRNLQSEVEGVKNIMTQNVERILA [VAMP8] displayed a protein stability index (treatment: DMSO) of 3.01 ± 0.41 and a protein stability index (treatment: MLN4924 1 uM, 8 h) of 2.96 ± 0.51.

As for VSAIIWEGNECKKMDMSVLEISGI [PHTF1], the protein stability index is, setting by setting: (treatment: DMSO) 2.11 ± 0.58; (treatment: MLN4924 1 uM, 8 h) 2.41 ± 0.83.

Consider VSASRDKTLRVWDLKDDGNMMKVL [WSB1], for which the protein stability index is, setting by setting: (treatment: DMSO) 3.2 ± 0.09; (treatment: MLN4924 1 uM, 8 h) 3.35 ± 0.25.

For VSLLENNIYVHDLLTFQQITTVSK [VPS39], the protein stability index reads like this: (treatment: DMSO) 2.97 ± 0.35; (treatment: MLN4924 1 uM, 8 h) 2.41 ± 0.49.

On to VSSVFLLTLSIAFICCAQVKVSHL [PHTF1], for which the protein stability index is, setting by setting: (treatment: DMSO) 3.57 ± 0.43; (treatment: MLN4924 1 uM, 8 h) 3.02 ± 0.58.

Consider VSVIQSIPIFNETGRFSFTLPYPV [HACD3], for which the protein stability index runs as follows: (treatment: DMSO) 2.91 ± 0.72; (treatment: MLN4924 1 uM, 8 h) 2.68 ± 0.76.

The sequence VSYRGAWWYRNCHYANLNGLYGST [TNXB] registered a protein stability index (treatment: DMSO) of 2.49 ± 0.46 and a protein stability index (treatment: MLN4924 1 uM, 8 h) of 2.26 ± 0.86.

Consider VTKVTAVDADAGHNAWLSYSLLPQ [PCDHGC5], for which the protein stability index (treatment: DMSO) was found to be 2.41 ± 0.39 and the protein stability index (treatment: MLN4924 1 uM, 8 h) worked out at 2.29 ± 0.21.

For VTSFPDADAFHHQVHDDDLLSSSE [EMD], the protein stability index by setting is: (treatment: DMSO) 5.38 ± 0.33; (treatment: MLN4924 1 uM, 8 h) 5.33 ± 0.21.

The sequence VVCAFFKQGQCTKGDKCKFSHDLT [ZC3H15] had a protein stability index (treatment: DMSO) of 4.26 ± 0.64 and a protein stability index (treatment: MLN4924 1 uM, 8 h) of 4.1 ± 0.47.

On to VVDKDKRNQCRYCRLKKCFRAGMK [HNF4A], for which the protein stability index runs as follows: (treatment: DMSO) 2.51 ± 0.065; (treatment: MLN4924 1 uM, 8 h) 2.75 ± 0.39.

As for VVWNAQTGEKLLELNGHTQKITAI [WDR41], the protein stability index amounted to 2.19 ± 0.2 (treatment: DMSO) and 2.31 ± 0.17 (treatment: MLN4924 1 uM, 8 h).

Consider VYASDKEWIRFDQSNVLCSIFGIC [PTGFR], for which the protein stability index stood at 2.56 ± 1.4 (treatment: DMSO) and 2.24 ± 0.78 (treatment: MLN4924 1 uM, 8 h).

For the sequence WAFSCGTWLPSRAEWLLAVRSIQP [AASDHPPT], the protein stability index turned out to be 2.65 ± 0.65 (treatment: DMSO) and 2.6 ± 0.64 (treatment: MLN4924 1 uM, 8 h).

In the case of WDKEPWFWHDTLTEQLWRIFAGVH [TLE6], the protein stability index is, setting by setting: (treatment: DMSO) 2.61 ± 0.82; (treatment: MLN4924 1 uM, 8 h) 2.22 ± 0.57.

Take WGGKAETERGLSRKHIIEGLKASL [KCNAB2]: the protein stability index stood at 2.26 ± 0.29 (treatment: DMSO) and 2.02 ± 0.21 (treatment: MLN4924 1 uM, 8 h).

With WIQFNHPYTEKPRLWHTACASDEG [KLHDC2], the protein stability index was 2.28 ± 0.31 (treatment: DMSO) and 2.4 ± 0.13 (treatment: MLN4924 1 uM, 8 h).

As for WKFPVPVLKTSRSTPLSPAYISLV [KLHL13], the protein stability index came to 2.48 ± 0.42 (treatment: DMSO) and 2.26 ± 0.1 (treatment: MLN4924 1 uM, 8 h).

WKSHLRNVQRPLLQAPFLPPKPPP [RHOBTB2]: the protein stability index (treatment: DMSO) was determined as 3.03 ± 0.21 and the protein stability index (treatment: MLN4924 1 uM, 8 h) worked out at 3.15 ± 0.32.

For WLPLATLIDEKVLILHGGVSDITD [PPEF2], the protein stability index by setting is: (treatment: DMSO) 2.22 ± 0.64; (treatment: MLN4924 1 uM, 8 h) 2.4 ± 0.58.

WLPYLYTLQGLYLVYHPVQLSTPH [DHCR7]: the protein stability index reads like this: (treatment: DMSO) 3 ± 0.25; (treatment: MLN4924 1 uM, 8 h) 2.91 ± 0.34.

Take WRMLRPQLVNSSADNMLEYKSWLK [PPEF2]: the protein stability index by setting is: (treatment: DMSO) 2.64 ± 0.49; (treatment: MLN4924 1 uM, 8 h) 2.7 ± 0.39.

As to YAELGQCSVFPATDAPEQFISQVT [PLK2], the protein stability index is, setting by setting: (treatment: DMSO) 2.67 ± 0.16; (treatment: MLN4924 1 uM, 8 h) 3.04 ± 0.41.

For the sequence YAVENEHMNRLQSQRAMLLQGTES [VTI1B], the protein stability index reads like this: (treatment: DMSO) 3.94 ± 0.31; (treatment: MLN4924 1 uM, 8 h) 4.1 ± 0.2.

For the sequence YDFDTQYAFVGDYSGQITLLKLEQ [WDFY1], the protein stability index is 2.19 ± 0.11 (treatment: DMSO) and 2.33 ± 0.27 (treatment: MLN4924 1 uM, 8 h).

With YDPWNAPEGIQKVAKCLIGVNYPK [CRY1], the protein stability index is 2.69 ± 0.13 (treatment: DMSO) and 2.87 ± 0.16 (treatment: MLN4924 1 uM, 8 h).

In the case of YEIEIQAEDGGAYLATAKVLITVE [PCDHGA10], the protein stability index (treatment: DMSO) was found to be 2.96 ± 0.39 and the protein stability index (treatment: MLN4924 1 uM, 8 h) worked out at 2.89 ± 0.91.

Consider YFFPVIFSKASDSLQLVFGIELME [MAGEA6], for which the protein stability index runs as follows: (treatment: DMSO) 3 ± 0.29; (treatment: MLN4924 1 uM, 8 h) 3.02 ± 0.54.

Consider YGALSSNLQPPASLQTGNHSNGPT [NOL4L], for which the protein stability index reads like this: (treatment: DMSO) 4.39 ± 0.22; (treatment: MLN4924 1 uM, 8 h) 4.44 ± 0.18.

As for YGSGDTPGGPCDSTLGGDIRESDP [TBX6], the protein stability index runs as follows: (treatment: DMSO) 5.25 ± 0.31; (treatment: MLN4924 1 uM, 8 h) 5.27 ± 0.61.

Take YLIMIFLGLYINFRHLYKQRRRRY [HACD3]: the protein stability index runs as follows: (treatment: DMSO) 2.55 ± 0.86; (treatment: MLN4924 1 uM, 8 h) 2.53 ± 0.63.

As for YPITLYLEKEREKEISDDEAEEEK [HSP90AB1], the protein stability index by setting is: (treatment: DMSO) 5.01 ± 0.39; (treatment: MLN4924 1 uM, 8 h) 5.3 ± 0.083.

In the case of YPPPPPALPSSAPSGPPPPPPSVL [WASL], the protein stability index is, setting by setting: (treatment: DMSO) 4.54 ± 0.2; (treatment: MLN4924 1 uM, 8 h) 4.5 ± 0.16.

For YQELNYRSVEEAPVYSVPQLLSAM [SCNN1D], the protein stability index reads like this: (treatment: DMSO) 2.49 ± 0.34; (treatment: MLN4924 1 uM, 8 h) 2.69 ± 0.29.

For YQLGEEAMEKFREDEGFLREEERP [KCNA3], the protein stability index by setting is: (treatment: DMSO) 5.13 ± 0.2; (treatment: MLN4924 1 uM, 8 h) 5.27 ± 0.24.

As for YSAEQFCVSRNSHLTSVTSESEQE [CD207], the protein stability index was 5.23 ± 0.21 (treatment: DMSO) and 5.13 ± 0.32 (treatment: MLN4924 1 uM, 8 h).

Regarding YSSGPQSWYPKANNQDFIPFTKKR [ZC2HC1C], the protein stability index amounted to 3.07 ± 0.54 (treatment: DMSO) and 3.68 ± 0.22 (treatment: MLN4924 1 uM, 8 h).

With YSVARQFNLTPPICEQAEYHMFQR [KCNAB2], the protein stability index is 2.64 ± 0.23 (treatment: DMSO) and 2.93 ± 0.29 (treatment: MLN4924 1 uM, 8 h).

For the sequence YTDNSIRPEELLQMELLLVNKLKW [CCND1], the protein stability index was 2.14 ± 0.12 (treatment: DMSO) and 2.37 ± 0.29 (treatment: MLN4924 1 uM, 8 h).

For YTGIVLLRCRKEFYQLVWSALPFI [POP5], the protein stability index came out at 3.12 ± 0.41 (treatment: DMSO) and 3.05 ± 0.47 (treatment: MLN4924 1 uM, 8 h).

In the case of YWKLQIFFTNVIQALGEHLKLRQQ [CCNC], the protein stability index reads like this: (treatment: DMSO) 2.66 ± 0.84; (treatment: MLN4924 1 uM, 8 h) 2.46 ± 0.38.

Turning to YYSCERAKKAMGYQPLVTMDDAME [NSDHL], the protein stability index reads like this: (treatment: DMSO) 3.97 ± 0.34; (treatment: MLN4924 1 uM, 8 h) 3.71 ± 0.45.

Values taken from the supplement of paper PMC10567573.
